B1: Membrane-associated guanylate kinase, WW and PDZ domain-containing protein 2, residues 601 to 682; numbered along this chain, Q86UL8 (parent)
chain: AELMTLTIVKGAQGFGFTIADSPTGQRVKQILDIQGCPGLCEGDLIVEINQQNVQNLSHTEVVDILKDCPIGSETSLIIHRG
B2: Endonuclease CUE2, residues 9 to 47; numbered along this chain, P36075 (parent)
chain: HESKLSILMDMFPAISKSKLQVHLLENNNDLDLTIGLLL

Variants of: B1
Assay: abundance fitness (aPCA) (normalised: wild type 0, dead -1); higher = more abundant; growth selection in yeast, the domain comes from the species named
Settings: Homo sapiens

Abundance fitness: each site, then its substitutions
E2: V -0.077, C -0.039, S -0.061, H -0.113, M -0.001, K -0.093, P -0.205, N 0.009, Q -0.066, I -0.139, A -0.032, T -0.034, R -0.098, L -0.131, W -0.214, Y -0.094, G -0.049, F -0.113
G14: A -0.152, R -0.093, Y -0.071, F -0.21, H -0.03, I -0.168, N 0.025, D 0.07, E -0.016, Q -0.052, T -0.02, M -0.089, C -0.11, L -0.105
M4: K -0.002, S -0.097, W -0.102, H -0.026, Y -0.022, P -0.081, I -0.061, G -0.118, F 0.058, C -0.136, D -0.013, R -0.157, A -0.1, E -0.106, T -0.014, N -0.063, Q -0.092, L -0.078, V -0.039
V9: W -0.072, F -0.044, P -0.135, H -0.222, G -0.077, D -0.184, Y -0.039, N -0.207, T -0.011, K -0.128, L -0.139, S -0.102, A -0.082, M 0.003, R -0.052, C -0.12, Q -0.071, I -0.087, E -0.088
A12: Q -0.037, C -0.044, D -0.02, N -0.077, F -0.075, E -0.047, L -0.05, R -0.029, K -0.036, S -0.046, G 0.01, M -0.034, W -0.057, H -0.209, I -0.137, P -0.043, Y -0.119
G11: K -0.09, V 0.027, Q -0.119, M -0.095, R -0.094, N 0.017, P 0.03, F -0.114, C -0.146, E -0.118, H -0.142, A 0.018, I -0.116, T -0.015, L -0.104, Y -0.124, S -0.023, D 0.01, W -0.223
T5: Q -0.088, R -0.167, K -0.024, H -0.139, C -0.142, F -0.217, S 0.02, I -0.169, M 0.029, N 0.03, L -0.101, A -0.098, E -0.092, W -0.208, D -0.024, Y -0.159, V -0.088, P -0.033, G -0.121
F15: M 0.039, D -0.118, K -0.322, Y -0.048, R -0.266, P -0.063, A -0.179, N -0.144, Q -0.062, S -0.143, V -0.003, L 0.004, W -0.002, C -0.111, G -0.221, E -0.141
I8: K -0.261, C -0.008, V -0.002, T 0.042, S -0.059, M -0.053, D -1.07, E -0.52, N -0.282, L 0.036, P -0.09, H -0.113, F 0.046, W -0.063, Q -0.08, Y -0.012, G -0.084, A -0.021, R -0.397
L6: T -0.059, H 0.007, F 0.003, I 0.008, R -0.123, C 0.038, N -0.166, S -0.075, K -0.098, M -0.059, P -0.204, V -0.021, Q -0.083, E -0.193, G -0.315, W -0.147, D -0.366, A -0.124, Y -0.064
L3: A -0.03, M 0.029, V -0.032, P -0.2, K 0.042, C -0.095, N 0.056, H 0.035, I 0.014, G -0.018, S -0.028, W -0.162, T 0.015, E 0.038, Q 0.014, D -0.024, F 0.016
K10: W -0.446, R -0.107, L -0.239, S -0.143, H -0.14, T -0.182, C -0.192, V -0.073, E -0.662, I -0.185, F -0.372, A -0.108, M -0.102, D -1.29, P -0.146, Q -0.123, G -0.125
A1: V 0.093, W -0.397, F -0.589, R 0.216, D -0.198, G -0.113, C -0.015, E -0.024
Q13: S -0.027, Y -0.096, R -0.017, M -0.104, A -0.037, C -0.06, F -0.084, V -0.067, G 0, D -0.062, E 0.016, P -0.001, W -0.101, K -0.06, T -0.038, I -0.218, H -0.161
T7: K 0.002, V -0.126, M -0.083, G -0.168, Y -0.121, A -0.008, L -0.075, R -0.052, S -0.103, I -0.013, C -0.027, Q -0.085, F -0.017, P -0.04, E -0.133, N 0.044
F17: I -0.057, H -0.881, A -0.697, G -1.11, E -0.75, C -0.303, D -1.18
G16: D 0.071, S -0.027, I -0.268, A -0.144, R -0.051, Q -0.085, C -0.002, F -0.101, K -0.029, T -0.048, L -0.014, H -0.044, E -0.059, Y -0.155, W -0.045, M -0.007, N 0.018, P -0.006

Variants of: B2
Assay: as above
Settings: Saccharomyces cerevisiae (strain ATCC 204508 / S288c)

Abundance fitness of substitutions, site by site:
L38: G -0.557, A -0.375, S -0.768, E -0.568, K -0.983, R -0.792, N -0.471, D -0.1, M -0.054, C -0.116, W -1.02, Q -0.664, P -0.497, V -0.27, T -0.628
G36: T 0.021, P -0.056, S 0.092, Y -0.447, W -0.452, V -0.383, N -0.054, Q 0.004
L39: W -0.066, R 0.276, H -0.062, V -0.046, F -0.084, G 0.122, S 0.1, M 0.167, K 0.33, N 0.081, P -0.199, Q 0.132, I -0.182, E 0.154, T 0.122
L37: H -0.034, V -0.054, C 0.06, N -0.003, A 0.055, R 0.081, S 0.026, K 0.045, D -0.049, Y 0.007, M -0.042, Q -0.016, W -0.128, E 0.001, G -0.014, P -0.099, T 0.098

Reference: the Human Domainome abundance scans (Beltran et al. 2025)
